# Measured values from publication doi:10.1101/2021.08.28.458007v1.
# System: O=C1O[C@H]([C@@H](O)CO)C(=O)C1=O
# Assay: purified protein
# Conditions: co-substrate GSH, 50 mM phosphate pH 6.8, 0.2 mM EDTA
Substance,Km,kcat
HsCLIC1 (Homo sapiens),2753 (±939.5) μM,0.00542 s⁻¹
HsCLIC4 (Homo sapiens),495.1 (±316.6) μM,0.00222 s⁻¹
HsCLIC3 (Homo sapiens),310.2 (±140.2) μM,0.00197 s⁻¹
HsCLIC1 (Homo sapiens; K13A),4121 (±858.6) μM,0.0002 s⁻¹
